Test results from patent publication US20250188154A1.

Experiments:
[1] = biological target: SARS-CoV-2 Spike-2P stabilized S ectodomain trimer (SARS-CoV-2) (UniProt P0DTC2); assay: SPR
[2] = biological target: SARS-CoV-2 spike-HexaPro; assay: SPR
[3] = biological target: rhFcγRI/CD64 (human) (UniProt P12314); assay: SPR, DH1042 captured on CM5, receptor titrated
[4] = biological target: rhFcγRIIIA/CD16a (human) (UniProt P08637); assay: SPR, DH1042 captured on CM5, receptor titrated
[5] = biological target: Cent B, centromere B (human) (UniProt P07199); assay: AtheNA Luminex, mAb at 25 (mg/mL [sic]); <100 negative
[6] = biological target: Histone (human); assay: as above
[7] = biological target: Jo 1 (human) (UniProt P12081); assay: as above
[8] = biological target: RNP, ribonucleoprotein (human) (UniProt Q96LT9); assay: as above
[9] = biological target: SSA, Sjogren's syndrome antigen A (human); assay: as above
[10] = biological target: SSB, Sjogren's syndrome antigen B (human) (UniProt P05455); assay: as above
[11] = biological target: Scl 70, scleroderma 70 (human) (UniProt P11387); assay: as above
[12] = biological target: Sm, small nuclear riboproteins (human); assay: as above
[13] = biological target: Cent B, centromere B (human) (UniProt P07199); assay: AtheNA Luminex, mAb at 50 (mg/mL [sic]); <100 negative
[14] = biological target: Histone (human); assay: as above
[15] = biological target: Jo 1 (human) (UniProt P12081); assay: as above
[16] = biological target: RNP, ribonucleoprotein (human) (UniProt Q96LT9); assay: as above
[17] = biological target: SSA, Sjogren's syndrome antigen A (human); assay: as above
[18] = biological target: SSB, Sjogren's syndrome antigen B (human) (UniProt P05455); assay: as above
[19] = biological target: Scl 70, scleroderma 70 (human) (UniProt P11387); assay: as above
[20] = biological target: Sm, small nuclear riboproteins (human); assay: as above
[21] = biological target: Cent B, centromere B (human) (UniProt P07199); assay: AtheNA Luminex, mAb at 12.5 (mg/mL [sic]); <100 negative
[22] = biological target: Histone (human); assay: as above
[23] = biological target: Jo 1 (human) (UniProt P12081); assay: as above
[24] = biological target: RNP, ribonucleoprotein (human) (UniProt Q96LT9); assay: as above
[25] = biological target: SSA, Sjogren's syndrome antigen A (human); assay: as above
[26] = biological target: SSB, Sjogren's syndrome antigen B (human) (UniProt P05455); assay: as above
[27] = biological target: Scl 70, scleroderma 70 (human) (UniProt P11387); assay: as above
[28] = biological target: Sm, small nuclear riboproteins (human); assay: as above
[29] = biological target: Cent B, centromere B (human) (UniProt P07199); assay: AtheNA Luminex, mAb at 6.25 (mg/mL [sic]); <100 negative
[30] = biological target: Histone (human); assay: as above
[31] = biological target: Jo 1 (human) (UniProt P12081); assay: as above
[32] = biological target: RNP, ribonucleoprotein (human) (UniProt Q96LT9); assay: as above
[33] = biological target: SSA, Sjogren's syndrome antigen A (human); assay: as above
[34] = biological target: SSB, Sjogren's syndrome antigen B (human) (UniProt P05455); assay: as above
[35] = biological target: Scl 70, scleroderma 70 (human) (UniProt P11387); assay: as above
[36] = biological target: Sm, small nuclear riboproteins (human); assay: as above
[37] = biological target: SARS-CoV live virus spike (SARS-CoV) (UniProt P59594); assay: cell-based or functional assay
[38] = biological target: bat CoV RsSHC014 live virus spike (bat coronavirus RsSHC014); assay: cell-based or functional assay
[39] = biological target: bat CoV WIV-1 live virus spike (bat coronavirus WIV-1); assay: cell-based or functional assay

UniProt P12081, sequence (P12081 2-509): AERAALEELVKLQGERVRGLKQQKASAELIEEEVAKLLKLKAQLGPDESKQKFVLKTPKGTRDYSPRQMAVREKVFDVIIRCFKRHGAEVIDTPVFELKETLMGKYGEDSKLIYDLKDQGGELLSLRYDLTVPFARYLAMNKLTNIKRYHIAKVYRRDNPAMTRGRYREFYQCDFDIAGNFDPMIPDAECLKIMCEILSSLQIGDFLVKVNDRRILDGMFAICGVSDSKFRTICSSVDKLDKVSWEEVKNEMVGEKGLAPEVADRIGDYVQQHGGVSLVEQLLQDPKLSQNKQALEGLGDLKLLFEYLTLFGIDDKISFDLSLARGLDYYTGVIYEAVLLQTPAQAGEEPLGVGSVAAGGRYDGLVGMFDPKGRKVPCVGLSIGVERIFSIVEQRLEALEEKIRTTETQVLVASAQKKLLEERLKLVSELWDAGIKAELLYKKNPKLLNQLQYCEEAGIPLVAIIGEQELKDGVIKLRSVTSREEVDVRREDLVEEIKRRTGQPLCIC
UniProt P11387, sequence (P11387 2-765): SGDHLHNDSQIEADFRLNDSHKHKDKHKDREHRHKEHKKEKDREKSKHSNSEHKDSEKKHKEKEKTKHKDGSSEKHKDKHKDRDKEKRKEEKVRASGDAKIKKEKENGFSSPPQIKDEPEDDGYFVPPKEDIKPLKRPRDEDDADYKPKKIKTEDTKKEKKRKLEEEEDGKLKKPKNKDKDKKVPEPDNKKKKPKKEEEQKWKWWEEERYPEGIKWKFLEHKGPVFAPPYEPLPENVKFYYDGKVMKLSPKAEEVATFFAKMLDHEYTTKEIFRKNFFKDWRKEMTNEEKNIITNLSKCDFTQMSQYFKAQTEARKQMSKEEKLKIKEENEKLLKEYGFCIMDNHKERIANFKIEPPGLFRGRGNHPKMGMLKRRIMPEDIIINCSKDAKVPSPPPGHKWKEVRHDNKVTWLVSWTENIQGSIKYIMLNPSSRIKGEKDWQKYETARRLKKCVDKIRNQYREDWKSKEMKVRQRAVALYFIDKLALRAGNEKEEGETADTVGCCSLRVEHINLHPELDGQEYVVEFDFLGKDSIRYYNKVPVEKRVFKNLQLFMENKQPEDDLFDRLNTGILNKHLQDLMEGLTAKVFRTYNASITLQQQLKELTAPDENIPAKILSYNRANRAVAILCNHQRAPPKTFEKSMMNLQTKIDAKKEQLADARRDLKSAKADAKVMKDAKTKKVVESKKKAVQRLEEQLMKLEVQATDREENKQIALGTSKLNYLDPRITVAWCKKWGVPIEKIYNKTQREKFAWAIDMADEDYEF
UniProt P05455, sequence (P05455 whole entry): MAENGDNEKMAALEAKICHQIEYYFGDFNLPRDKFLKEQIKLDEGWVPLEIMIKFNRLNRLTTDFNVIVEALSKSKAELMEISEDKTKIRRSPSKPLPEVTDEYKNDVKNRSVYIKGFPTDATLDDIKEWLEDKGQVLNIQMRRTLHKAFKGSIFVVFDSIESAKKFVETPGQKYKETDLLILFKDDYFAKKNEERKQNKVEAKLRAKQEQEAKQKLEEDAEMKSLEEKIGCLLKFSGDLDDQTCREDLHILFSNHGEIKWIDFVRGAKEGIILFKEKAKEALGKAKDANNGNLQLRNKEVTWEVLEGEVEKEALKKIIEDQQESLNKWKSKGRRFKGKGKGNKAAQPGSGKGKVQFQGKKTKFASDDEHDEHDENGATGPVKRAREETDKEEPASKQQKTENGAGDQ
UniProt P07199, sequence (P07199 2-599): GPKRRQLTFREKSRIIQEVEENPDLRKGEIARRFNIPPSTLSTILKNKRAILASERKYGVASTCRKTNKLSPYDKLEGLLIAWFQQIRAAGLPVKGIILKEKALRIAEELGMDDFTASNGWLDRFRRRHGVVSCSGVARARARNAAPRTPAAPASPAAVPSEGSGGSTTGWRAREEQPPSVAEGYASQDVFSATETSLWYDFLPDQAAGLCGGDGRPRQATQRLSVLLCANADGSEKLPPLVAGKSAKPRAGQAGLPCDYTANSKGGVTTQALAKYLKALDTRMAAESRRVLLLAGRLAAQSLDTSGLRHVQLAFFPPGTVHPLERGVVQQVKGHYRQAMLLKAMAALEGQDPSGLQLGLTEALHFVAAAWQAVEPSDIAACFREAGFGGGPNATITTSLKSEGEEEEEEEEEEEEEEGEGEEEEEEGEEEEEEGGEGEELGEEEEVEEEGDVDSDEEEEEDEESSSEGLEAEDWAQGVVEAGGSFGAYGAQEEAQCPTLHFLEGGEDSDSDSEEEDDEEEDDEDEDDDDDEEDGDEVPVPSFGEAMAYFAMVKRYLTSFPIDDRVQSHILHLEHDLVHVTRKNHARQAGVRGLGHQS
UniProt Q96LT9, sequence (Q96LT9 whole entry): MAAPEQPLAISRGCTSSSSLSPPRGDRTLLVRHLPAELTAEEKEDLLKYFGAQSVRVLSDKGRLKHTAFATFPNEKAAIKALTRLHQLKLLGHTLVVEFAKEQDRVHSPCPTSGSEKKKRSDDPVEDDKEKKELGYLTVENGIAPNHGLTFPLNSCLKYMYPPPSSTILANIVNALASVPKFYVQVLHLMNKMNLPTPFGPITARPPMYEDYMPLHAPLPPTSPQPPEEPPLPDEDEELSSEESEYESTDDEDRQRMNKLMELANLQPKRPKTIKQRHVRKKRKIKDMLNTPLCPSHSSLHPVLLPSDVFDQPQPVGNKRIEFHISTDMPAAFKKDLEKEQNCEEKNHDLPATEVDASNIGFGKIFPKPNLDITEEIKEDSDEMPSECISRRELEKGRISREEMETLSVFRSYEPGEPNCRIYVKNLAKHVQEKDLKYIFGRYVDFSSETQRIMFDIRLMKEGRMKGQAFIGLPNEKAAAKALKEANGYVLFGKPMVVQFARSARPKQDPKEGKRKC
UniProt P12314, sequence (P12314 16-288 limits assumed): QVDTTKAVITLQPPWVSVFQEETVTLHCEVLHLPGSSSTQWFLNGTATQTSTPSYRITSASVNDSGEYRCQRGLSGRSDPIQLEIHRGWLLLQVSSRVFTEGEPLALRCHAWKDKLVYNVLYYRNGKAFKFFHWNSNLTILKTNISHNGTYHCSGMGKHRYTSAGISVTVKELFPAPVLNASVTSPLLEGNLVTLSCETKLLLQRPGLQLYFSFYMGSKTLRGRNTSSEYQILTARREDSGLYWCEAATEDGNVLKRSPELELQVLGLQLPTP
UniProt P08637, sequence (P08637 17-208 limits assumed): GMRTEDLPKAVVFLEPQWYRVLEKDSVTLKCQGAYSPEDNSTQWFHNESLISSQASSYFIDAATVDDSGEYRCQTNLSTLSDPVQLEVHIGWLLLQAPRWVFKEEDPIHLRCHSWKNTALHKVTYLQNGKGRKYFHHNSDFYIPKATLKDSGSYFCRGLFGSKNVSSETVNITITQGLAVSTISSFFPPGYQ

## DH1042
[1]
  Kd: 0.6 nM
[2]
  Kd: 0.8 nM

## DH1042 (antibody)
[3]
  Kd: 414 µM
[4]
  Kd: 406 nM
[5]
  AtheNA value: 26
[6]
  AtheNA value: 6
[7]
  AtheNA value: 4
[8]
  AtheNA value: 4
[9]
  AtheNA value: 2
[10]
  AtheNA value: 5
[11]
  AtheNA value: 2
[12]
  AtheNA value: 2
[13]
  AtheNA value: 56
[14]
  AtheNA value: 9
[15]
  AtheNA value: 2
[16]
  AtheNA value: 6
[17]
  AtheNA value: 2
[18]
  AtheNA value: 4
[19]
  AtheNA value: 1
[20]
  AtheNA value: 3
[21]
  AtheNA value: 12
[22]
  AtheNA value: 3
[23]
  AtheNA value: 1
[24]
  AtheNA value: 0
[25]
  AtheNA value: 3
[26]
  AtheNA value: 2
[27]
  AtheNA value: 0
[28]
  AtheNA value: 1
[29]
  AtheNA value: 6
[30]
  AtheNA value: 2
[31]
  AtheNA value: 2
[32]
  AtheNA value: 1
[33]
  AtheNA value: 1
[34]
  AtheNA value: 3
[35]
  AtheNA value: 1
[36]
  AtheNA value: 3

## DH1047
[1]
  Kd: < 0.1 nM
[2]
  Kd: 0.08 nM

## DH1047 (antibody)
[37]
  live virus neutralization IC50: 0.028 µg/mL
[38]
  live virus neutralization IC50: 0.2 µg/mL
[39]
  live virus neutralization IC50: 0.191 µg/mL
